According to the Human Domainome abundance scans (Beltran et al. 2025):

B1: Mineralocorticoid receptor, residues 600 to 675; numbered along this chain, P08235 (parent)
chain: SKICLVCGDEASGCHYGVVTCGSCKVFFKRAVEGQHNYLCAGRNDCIIDKIRRKNCPACRLQKCLQAGMNLGARKS

Variants of: B1
Assay: abundance fitness (aPCA) (normalised: wild type 0, dead -1); higher = more abundant; growth selection in yeast, the domain comes from the species named
Details: Homo sapiens

Abundance fitness of substitutions, site by site:
G8: A 0.058, N -0.235, E -0.075, M -0.062, D -0.085, Y -0.248, S -0.057, F -0.202, I -0.605, K -0.019, R -0.043, C -0.233, L -0.08, T -0.079, V -0.621, W -0.27, Q -0.095, H -0.273
C21: Q -0.567, K -1.25, Y -0.731, I -0.803, T -1.22, R -0.962, V -1.11, M -0.969, P -1.05, G -1.03, F -0.515, W -1.22, E -0.854, A -0.977
L5: W -0.106, H -0.239, K 0.057, Y -0.076, N -0.068, T -0.037, E -0.071, F -0.027, R -0.091, I -0.089, P -0.075, M -0.133, C -0.069, D -0.168, S -0.075, A -0.05, V -0.209, Q 0.05
D9: C -0.137, L -0.309, R -0.183, Y -0.161, F -0.202, A 0.048, T -0.082, Q -0.092, E -0.096, W -0.214, K -0.231, H -0.04, V -0.001, N -0.144, G -0.053, S -0.102, I -0.168
S12: A -0.132, N 0.205, D -0.238, C -0.142, M 0.071, V -0.106, L 0.068, W -0.191, E 0.103, R 0.004, I 0.043, Y 0.096, P -0.008, H -0.117, G -0.181, F -0.173, Q -0.019, K -0.124
C14: T -0.09, L -0.103, H -0.003, E -0.012, V -0.008, M 0.015, F -0.146, N -0.047, R -0.062, A -0.027, G -0.077, W -0.049, Q 0.013, P -0.072, D -0.011, Y -0.069
G17: N -0.126, H -0.208, S -0.044, M -0.055, A -0.108, R -0.046, F -0.121, Q -0.065, E -0.007, D -0.031, V -0.228, T -0.073, I -0.24, P -0.175, C -0.049, W -0.169, L -0.142, K -0.054
V18: Y -0.284, G -0.117, M -0.233, P -0.157, H -0.333, E -0.202, T -0.444, I 0.045, W -0.457, Q -0.15, D -0.155, L -0.06, C 0.112, K -0.101, R -0.078, F -0.274
C7: L -1.15, T -0.999, V -0.998, W -0.765, S -0.96, H -0.802, A -0.933, R -0.886, Y -0.805
T20: R -0.75, P -0.691, H -0.186, I -0.082, V 0.032, M -0.194, S -0.017, C -0.062, A -0.072, G -0.067, E -0.522, F -0.351, L -0.17, K -0.727, Q -0.244, D -0.49, W -0.325, N 0.064
V19: M 0.115, K 0.007, F 0.047, I -0.086, R -0.019, G -0.082, W -0.058, H -0.091, E 0.032, Y -0.247, T -0.113, S 0.038, Q -0.02, D -0.008, A 0.029, P 0.001, N 0.112, C -0.108
G13: Q 0.032, I -0.146, N 0.043, L -0.073, R 0.028, T 0.016, H -0.016, S -0.033, V -0.092, W -0.268, A -0.111, P -0.157, K 0.019, M -0.035, C -0.407, F -0.047, Y -0.259
Y16: S -0.097, H -0.022, W 0.024, K -0.081, I -0.213, C -0.054, T -0.027, R -0.075, F -0.053, A -0.039, V 0.013, D -0.025, L -0.104, P -0.125, Q -0.068, N -0.147, G -0.061
S23: T -0.164, L -0.104, K -0.007, H -0.143, D 0.01, N 0.051, M -0.085, A -0.125, C -0.253, E 0.003, W -0.193, F -0.168, G 0.009, Q -0.013, I -0.42, P 0.026, Y -0.038
V6: L -0.375, T -0.148, A -0.051, I 0.008, Y -0.489, G -0.726, N -0.706, D -0.765, C -0.228, S -0.512, R -0.971, P -0.704, M -0.416, K -0.83, Q -0.803
H15: E -0.033, W 0.029, T -0.11, L -0.096, I -0.131, S -0.075, D -0.119, K 0.032, R -0.136, Y -0.057, A -0.062, C -0.152, M -0.059, F 0.023, Q -0.12, V -0.103, P -0.066, N -0.092
G22: V -0.093, R -0.103, T -0.11, E -0.017, N -0.236, W -0.088, H -0.109, S -0.058, C -0.178, M -0.035, L -0.094, D 0.008, P -0.054, K -0.063, Y -0.222, A -0.013, Q -0.16, I -0.259
C24: H -0.67, D -0.252, E -1.03, K -1.03, A -0.983
E10: S -0.03, Y -0.105, I -0.188, T -0.032, D -0.018, Q 0.071, C -0.221, M -0.177, V -0.04, A -0.063, P -0.108, H 0.078, N -0.04, W -0.012, G 0.043, L -0.028, K 0.016, R -0.1
C4: W -1.06, P -0.986, S -0.851, Q -0.812, M -0.96, V -0.989, Y -0.99, N -1.04, L -0.768, T -0.837
A11: V -0.222, P -0.001, Q -0.037, Y -0.245, M -0.135, K -0.101, I -0.354, L -0.16, G -0.043, F -0.194, E -0.02, H -0.13, R -0.089, W -0.22, N 0.031, D -0.134, C -0.123, T -0.063, S -0.044
